Test [1] concerns the target intrinsically disordered domain of avian ANP32A (amino acids 149-281) (Gallus gallus). The test is described as follows: NMR titration. The conditions noted are these: both partners purified.
Test [2] concerns the target intrinsically disordered domain of human ANP32A (amino acids 144-249) (human, UniProt P39687 144-249). In words: NMR titration. The conditions noted are these: both partners purified.

Chain of intrinsically disordered domain of human ANP32A (amino acids 144-249) (P39687 144-249): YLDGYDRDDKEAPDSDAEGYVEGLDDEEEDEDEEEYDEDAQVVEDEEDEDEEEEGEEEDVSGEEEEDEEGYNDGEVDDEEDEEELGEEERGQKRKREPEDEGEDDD

B1: 627 domain of PB2 (E627), amino acids 538-693 (domain or fragment)
chain: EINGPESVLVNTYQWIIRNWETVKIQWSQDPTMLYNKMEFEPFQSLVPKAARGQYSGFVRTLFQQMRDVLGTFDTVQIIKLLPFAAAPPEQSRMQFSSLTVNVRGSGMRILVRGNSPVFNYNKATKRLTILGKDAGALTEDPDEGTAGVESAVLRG
Consider B1, for which, in test [1], the “KD of the individual sites (tightest)” value is at least 1.7 mM and the Kd (in general, the concentration at which binding is half-saturated) is above 0.6 mM. The “KD of the individual sites” value in test [2] was above 1.4 mM.
